# Experiments:
# [1] = test system: G-CSF; experiment: Examples 21-22 non-human primate in vivo study, serum G-CSF ELISA; parameters: species or system cynomolgus monkey; conditions: for Female NHP Serum G-CSF Concentration / Male NHP Serum G-CSF Concentration: IV 0.5 mg/kg; for Average Serum Conentration: G-CSF
# Procedure: Formulations, listed in Table 31, were characterized by particle size, zeta potential, and encapsulation.
# LNP formulations, shown in Table 31 (above), were administered to non-human primates (NHP) (cynomolgus monkey) (n=2) as a bolus intravenous injection (IV) over approximately 30 seconds using a hypodermic needle, which may be attached to a syringe/abbocath or butterfly if needed. The NHP were administered a single modified mRNA IV dose of 0.05 mg/kg of EPO or G-CSF or 0.005 mg/kg of EPO in a dose volume of 0.5 mL/kg. The NHPs were bled 5-6 days before dosing with the modified mRNA LNP formulations to determine protein expression in the serum and a baseline complete blood count. After administration with the modified mRNA formulation the NHP were bled at 8, 24, 48 and 72 hours to determined protein expression. At 24 and 72 hours after administration the complete blood count of the NHP was also determined. Protein expression of G-CSF and EPO was determined by ELISA. Urine from the NHPs was collected over the course of the entire experiment and analyzed to evaluate clinical safety. Samples were collected from the NHPs after they were administered with G-CSF or EPO modified mRNA formulations to determine protein expression using ELISA. Clinical chemistry, hematology, urinalysis and cytokines of the non-human primates were also analyzed.
# (§1) LNP formulations, shown in Table 31 (above), were administered to non-human primates (NHP) (cynomolgus monkey) (n=2) as intravenous injection (IV). The NHP were administered a single modified mRNA IV dose of 0.5 mg/kg, 0.05 mg/kg or 0.005 mg/kg of G-CSF or EPO in a dose volume of 0.5 mL/kg. The NHPs were bled before dosing with the modified mRNA LNP formulations to determine protein expression in the serum and a baseline complete blood count. After administration with the G-CSF modified mRNA formulation the NHP were bled at 8, 24, 48 and 72 hours to determined protein expression. After administration with the EPO modified mRNA formulation the NHP were bled at 8, 24, 48, 72 hours and 7 days to determined protein expression.
# (§2) Samples collected from the NHPs after they were administered with G-CSF or EPO modified mRNA formulations were analyzed by ELISA to determine protein expression. Neutrophil and reticulocyte count was also determined pre-dose, 24 hours, 3 days, 7 days, 14 days and 18 days after administration of the modified G-CSF or EPO formulation.
# [2] = test system: reticulocytes; experiment: Example 22 non-human primate study, reticulocyte count; type: in vivo, cynomolgus monkey
# Procedure: as §1, §2
molecule,measurement,setting,value
"G-CSF: human G-CSF mRNA SEQ ID NO: 6, polyA ~160 nt, Cap1, fully modified with 5-methylcytosine and pseudouridine (nucleic acid, listed as Homo sapiens, polyA ~160, Cap1, 5mC/pseudouridine modified) GGGAAAUAAGAGAGAAAAGAAGAGUAAGAAGAAAUAUAAGAGCCACCAUGGCCGGUCCCGCGACCCAAAGCCCCAUGAAACUUAUGGCCCUGCAGUUGCUGCUUUGGCACUCGGCCCUCUGGACAGUCCAAGAAGCGACUCCUCUCGGACCUGCCUCAUCGUUGCCGCAGUCAUUCCUUUUGAAGUGUCUGGAGCAGGUGCGAAAGAUUCAGGGCGAUGGAGCCGCACUCCAAGAGAAGCUCUGCGCGACAUACAAACUUUGCCAUCCCGAGGAGCUCGUACUGCUCGGGCACAGCUUGGGGAUUCCCUGGGCUCCUCUCUCGUCCUGUCCGUCGCAGGCUUUGCAGUUGGCAGGGUGCCUUUCCCAGCUCCACUCCGGUUUGUUCUUGUAUCAGGGACUGCUGCAAGCCCUUGAGGGAAUCUCGCCAGAAUUGGGCCCGACGCUGGACACGUUGCAGCUCGACGUGGCGGAUUUCGCAACAACCAUCUGGCAGCAGAUGGAGGAACUGGGGAUGGCACCCGCGCUGCAGCCCACGCAGGGGGCAAUGCCGGCCUUUGCGUCCGCGUUUCAGCGCAGGGCGGGUGGAGUCCUCGUAGCGAGCCACCUUCAAUCAUUUUUGGAAGUCUCGUACCGGGUGCUGAGACAUCUUGCGCAGCCGUGAAGCGCUGCCUUCUGCGGGGCUUGCCUUCUGGCCAUGCCCUUCUUCUCUCCCUUGCACCUGUACCUCUUGGUCUUUGAAUAAAGCCUGAGUAGGAAG",Female NHP Serum G-CSF Concentration,[1]; 24 hours,"11,374 pg/ml"
same,Male NHP Serum G-CSF Concentration,[1]; 24 hours,"3,628 pg/ml"
same,Female NHP Serum G-CSF Concentration,[1]; 48 hours,"1,100 pg/ml"
same,Male NHP Serum G-CSF Concentration,[1]; 48 hours,833 pg/mL
same,Female NHP Serum G-CSF Concentration,[1]; 72 hours,<39 pg/mL
same,Male NHP Serum G-CSF Concentration,[1]; 72 hours,306 pg/mL
same,Female NHP Serum G-CSF Concentration,[1]; Pre-bleed,<39 pg/mL
same,Male NHP Serum G-CSF Concentration,[1]; Pre-bleed,<39 pg/mL
same,Average Serum Conentration,"[1]; NHP, IV 0.05 mg/kg, 8 hours","2,506 pg/ml"
same,Average Serum Conentration,"[1]; NHP, IV 0.05 mg/kg, 24 hours",515 pg/mL
same,Average Serum Conentration,"[1]; NHP, IV 0.05 mg/kg, 48 hours",0 pg/mL
same,Average Serum Conentration,"[1]; NHP, IV 0.05 mg/kg, 72 hours",0 pg/mL
same,Average Serum Conentration,"[1]; NHP, IV 0.05 mg/kg, Pre-bleed",0 pg/mL
same,G-CSF protein expression seen out to,"[1]; NHP, IV 0.05 mg/kg",24 h
same,G-CSF protein expression not detected beyond,"[1]; NHP, IV 0.5, 0.05, 0.005 mg/kg (Table 36)",≤ 72 h
same,Reticulocyte count,"[2]; Table 39, Female NHP, 0.005 mg/kg, 14/18 days",0.057 10^12/L
same,Reticulocyte count,"[2]; Table 39, Female NHP, 0.005 mg/kg, 24 hours",0.07 10^12/L
same,Reticulocyte count,"[2]; Table 39, Female NHP, 0.005 mg/kg, 3 days",0.054 10^12/L
same,Reticulocyte count,"[2]; Table 39, Female NHP, 0.005 mg/kg, 7 days",0.066 10^12/L
same,Reticulocyte count,"[2]; Table 39, Female NHP, 0.005 mg/kg, Pre-dose",0.06 10^12/L
same,Reticulocyte count,"[2]; Table 39, Female NHP, 0.05 mg/kg, 14/18 days",0.06 10^12/L
same,Reticulocyte count,"[2]; Table 39, Female NHP, 0.05 mg/kg, 24 hours",0.046 10^12/L
same,Reticulocyte count,"[2]; Table 39, Female NHP, 0.05 mg/kg, 3 days",0.061 10^12/L
same,Reticulocyte count,"[2]; Table 39, Female NHP, 0.05 mg/kg, 7 days",0.094 10^12/L
same,Reticulocyte count,"[2]; Table 39, Female NHP, 0.05 mg/kg, Pre-dose",0.049 10^12/L
same,Reticulocyte count,"[2]; Table 39, Female NHP, 0.5 mg/kg, 14/18 days",0.071 10^12/L
same,Reticulocyte count,"[2]; Table 39, Female NHP, 0.5 mg/kg, 24 hours",0.046 10^12/L
same,Reticulocyte count,"[2]; Table 39, Female NHP, 0.5 mg/kg, 3 days",0.017 10^12/L
same,Reticulocyte count,"[2]; Table 39, Female NHP, 0.5 mg/kg, 7 days",0.021 10^12/L
same,Reticulocyte count,"[2]; Table 39, Female NHP, 0.5 mg/kg, Pre-dose",0.055 10^12/L
same,Reticulocyte count,"[2]; Table 39, Male NHP, 0.005 mg/kg, 14/18 days",0.069 10^12/L
same,Reticulocyte count,"[2]; Table 39, Male NHP, 0.005 mg/kg, 24 hours",0.037 10^12/L
same,Reticulocyte count,"[2]; Table 39, Male NHP, 0.005 mg/kg, 3 days",0.037 10^12/L
same,Reticulocyte count,"[2]; Table 39, Male NHP, 0.005 mg/kg, 7 days",0.046 10^12/L
same,Reticulocyte count,"[2]; Table 39, Male NHP, 0.005 mg/kg, Pre-dose",0.037 10^12/L
same,Reticulocyte count,"[2]; Table 39, Male NHP, 0.05 mg/kg, 14/18 days",0.107 10^12/L
same,Reticulocyte count,"[2]; Table 39, Male NHP, 0.05 mg/kg, 24 hours",0.048 10^12/L
same,Reticulocyte count,"[2]; Table 39, Male NHP, 0.05 mg/kg, 3 days",0.101 10^12/L
same,Reticulocyte count,"[2]; Table 39, Male NHP, 0.05 mg/kg, 7 days",0.157 10^12/L
same,Reticulocyte count,"[2]; Table 39, Male NHP, 0.05 mg/kg, Pre-dose",0.055 10^12/L
same,Reticulocyte count,"[2]; Table 39, Male NHP, 0.5 mg/kg, 14/18 days",0.029 10^12/L
same,Reticulocyte count,"[2]; Table 39, Male NHP, 0.5 mg/kg, 24 hours",0.032 10^12/L
same,Reticulocyte count,"[2]; Table 39, Male NHP, 0.5 mg/kg, 3 days",0.041 10^12/L
same,Reticulocyte count,"[2]; Table 39, Male NHP, 0.5 mg/kg, 7 days",0.009 10^12/L
same,Reticulocyte count,"[2]; Table 39, Male NHP, 0.5 mg/kg, Pre-dose",0.067 10^12/L

# From US20160193299A1, “MODIFIED NUCLEOSIDE, NUCLEOTIDE, AND NUCLEIC ACID COMPOSITIONS” (Moderna Therapeutics, Inc., priority 2011, published 2016)
